From paper PMC6082575

What was measured:
[1] = target: C-X-C chemokine receptor type 4 (mouse, on cultured hippocampal neurons) (mouse (endogenous in cultured hippocampal neurons)) (UniProt P70658)
[2] = target: C-X-C chemokine receptor type 4 (mouse, on cultured hippocampal neurons) (mouse (endogenous in cultured hippocampal neurons)) (UniProt P70658); remark: listed apart in the source
[3] = target: C-X-C chemokine receptor type 4 (feline, on cultured hippocampal neurons) (cat (endogenous in cultured feline hippocampal neurons)) (UniProt P56498)
Sequence of UniProt P56498 (P56498 whole entry): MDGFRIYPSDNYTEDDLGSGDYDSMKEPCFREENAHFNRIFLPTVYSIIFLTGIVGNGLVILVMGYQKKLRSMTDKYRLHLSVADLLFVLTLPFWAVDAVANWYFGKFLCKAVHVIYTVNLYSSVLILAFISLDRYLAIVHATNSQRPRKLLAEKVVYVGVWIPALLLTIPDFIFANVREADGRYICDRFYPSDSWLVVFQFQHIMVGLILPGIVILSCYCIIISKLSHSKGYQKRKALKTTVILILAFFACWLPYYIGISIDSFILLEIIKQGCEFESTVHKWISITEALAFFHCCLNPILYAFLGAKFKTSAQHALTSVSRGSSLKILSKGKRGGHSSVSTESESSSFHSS

Sequence of UniProt P70658 (P70658 whole entry): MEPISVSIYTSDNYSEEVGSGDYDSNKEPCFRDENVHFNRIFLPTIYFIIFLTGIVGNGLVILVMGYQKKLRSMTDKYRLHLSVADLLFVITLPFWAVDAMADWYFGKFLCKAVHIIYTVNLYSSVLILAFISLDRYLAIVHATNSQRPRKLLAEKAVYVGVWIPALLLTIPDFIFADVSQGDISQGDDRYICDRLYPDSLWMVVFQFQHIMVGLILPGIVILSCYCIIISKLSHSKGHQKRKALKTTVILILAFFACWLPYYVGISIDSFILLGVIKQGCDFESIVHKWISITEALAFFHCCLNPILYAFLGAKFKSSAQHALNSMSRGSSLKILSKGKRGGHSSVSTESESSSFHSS

HIV-1 IIIB gp120 Recombinant Protein (from UniProt P04578 33-511) (ligand)
normalised total Ca2+ activity (GCaMP5 imaging) in cultured mouse hippocampal neurons treated with 1-nM gp120 (IIIB) and 200-nM AMD3100 (CXCR4 antagonist) [1]: 0.85 ΔF/Fmin

FIV envelope glycoprotein gp95 (Fc fusion)
normalised total Ca2+ activity (GCaMP5 imaging) in cultured mouse hippocampal neurons treated with 1-nM gp95 and 200-nM AMD3100 (CXCR4 antagonist) [2]: 1.18 ΔF/Fmin
normalised total Ca2+ activity (GCaMP5 imaging) in cultured feline hippocampal neurons treated with 1-nM gp95 and 200-nM AMD3100 (CXCR4 antagonist) [3]: 0.99 ΔF/Fmin

stromal cell-derived factor-1 (from UniProt P48061 22-93) (ligand)
normalised total Ca2+ activity (GCaMP5 imaging) in cultured mouse hippocampal neurons treated with 20-nM SDF-1 and 200-nM AMD3100 (CXCR4 antagonist) [1]: 1.26 ΔF/Fmin
